# Data taken from IntAct's records for PubMed 20142502.
# B1: pre-mRNA splicing regulator USH1G (Homo sapiens), Q495M9 (parent)
# chain: MNDQYHRAARDGYLELLKEATRKELNAPDEDGMTPTLWAAYHGNLESLRLIVSRGGDPDKCDIWGNTPLHLAASNGHLHCLSFLVSFGANIWCLDNDYHTPLDMAAMKGHMECVRYLDSIAAKQSSLNPKLVGKLKDKAFREAERRIRECAKLQRRHHERMERRYRRELAERSDTLSFSSLTSSTLSRRLQHLALGSHLPYSQATLHGTARGKTKMQKKLERRKQGGEGTFKVSEDGRKSARSLSGLQLGSDVMFVRQGTYANPKEWGRAPLRDMFLSDEDSVSRATLAAEPAHSEVSTDSGHDSLFTRPGLGTMVFRRNYLSSGLHGLGREDGGLDGVGAPRGRLQSSPSLDDDSLGSANSLQDRSCGEELPWDELDLGLDEDLEPETSPLETFLASLHMEDFAALLRQEKIDLEALMLCSDLDLRSISVPLGPRKKILGAVRRRRQAMERPPALEDTEL
# partner: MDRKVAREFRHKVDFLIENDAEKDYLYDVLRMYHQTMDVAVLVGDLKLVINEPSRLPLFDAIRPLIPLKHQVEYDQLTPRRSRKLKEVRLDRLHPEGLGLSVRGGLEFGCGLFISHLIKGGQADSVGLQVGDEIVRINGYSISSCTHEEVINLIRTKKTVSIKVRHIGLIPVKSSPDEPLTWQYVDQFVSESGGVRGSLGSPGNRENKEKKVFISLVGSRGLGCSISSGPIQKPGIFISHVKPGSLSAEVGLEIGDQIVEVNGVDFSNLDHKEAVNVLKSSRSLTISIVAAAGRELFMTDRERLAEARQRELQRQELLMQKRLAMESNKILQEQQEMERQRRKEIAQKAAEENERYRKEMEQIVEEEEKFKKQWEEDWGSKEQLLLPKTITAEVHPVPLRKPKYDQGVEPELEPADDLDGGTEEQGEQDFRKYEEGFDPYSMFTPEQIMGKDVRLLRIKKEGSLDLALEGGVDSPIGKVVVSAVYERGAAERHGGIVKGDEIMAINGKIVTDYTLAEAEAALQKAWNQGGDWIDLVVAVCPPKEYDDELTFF
# B2: Harmonin (Homo sapiens), Q9Y6N9 (parent)
# chain: B1 partner
# partner: B1 chain
# Variants of: B1
# Details: with ush1c_human USH1C, Q9Y6N9
row,Variant,effect of a mutation on the interaction
1,D458V,decreasing interaction

# Variants of: B2
# Details: with ush1g_human USH1G, Q495M9
row,Variant,effect of a mutation on the interaction
1,R103H,decreasing interaction
